Reference: FireProtDB (doi:10.1021/bi982209j)
Several values for one entry are separate records, joined by “and”; a condition that tells them apart may be missing. Equal entries are not always repeated.

Conditions: Equus caballus; pH 7; 10 °C; GdnHCl; Fluorescence; Imidazole 50 mM

Cytochrome c wild type, P00004, sequence (P00004 whole entry): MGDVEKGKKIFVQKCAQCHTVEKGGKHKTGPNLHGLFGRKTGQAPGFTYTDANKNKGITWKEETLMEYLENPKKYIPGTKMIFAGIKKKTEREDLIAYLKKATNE

## Cytochrome c wild type, P00004
  denaturant m value: 2.7 kcal/mol/M
  unfolding free energy: 8.1 kcal/mol and 7.8 kcal/mol
